US20120316071A1 (published 2012)
Blank lines part the entries; values can stand above or below the binder they belong to.

What was measured:
[1] = biological target: T1, rHuman CD44/Fc Chimera, CF (R&D Systems Cat#3660-CD) (human, UniProt P16070 21-220); experiment: ECL Multispot (MSD), 10 nM Fab; blank of this row 363
T1 construct: Bought reagent; Fc part of the bought chimera not given

[2] = biological target: T2, rHuman ErbB2/Fc Chimera, CF (R&D Systems Cat#1129-ER) (human, UniProt P04626 23-652); experiment: as above
T2 construct: Bought reagent; also called human epidermal growth factor 2 receptor; Fc part of the bought chimera not given

[3] = biological target: T3, rHuman IGF-1 sR, (IGF-1 sR), CF (R&D Systems Cat#391-GR) (human, UniProt P08069 31-932); experiment: as above
T3 construct: Bought soluble receptor; also called insulin-like growth factor-1 soluble receptor

[4] = biological target: T4, rHuman Erythropoietin R/Fc Chimera, CF (R&D Systems Cat#963-ER) (human, UniProt P19235 25-250); experiment: as above
T4 construct: Bought reagent; also called EPO R; EPO R/Fc; Fc part of the bought chimera not given
T4 sequence (looked up): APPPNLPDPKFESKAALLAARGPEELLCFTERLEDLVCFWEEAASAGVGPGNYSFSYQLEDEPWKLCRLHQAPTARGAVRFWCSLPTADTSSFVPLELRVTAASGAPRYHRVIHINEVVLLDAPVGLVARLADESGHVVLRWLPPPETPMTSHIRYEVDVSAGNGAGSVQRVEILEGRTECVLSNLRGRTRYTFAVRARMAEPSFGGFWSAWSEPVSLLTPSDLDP

[5] = biological target: T5, rHuman P-Cadherin/Fc Chimera, CF (R&D Systems Cat#861-PC) (human, UniProt P22223 108-654); experiment: as above
T5 construct: Bought reagent; Fc part of the bought chimera not given

[6] = biological target: T6, rHuman HGF R/c-MET/Fc Chimera, CF (R&D Systems Cat#358-MT/CF) (human, UniProt P08581 25-932); experiment: as above
T6 construct: Bought reagent; also called HGF R/Fc; hepatocyte growth factor receptor; Fc part of the bought chimera not given

[7] = biological target: T7, rHuman Notch-1/Fc Chimera, CF (R&D Systems Cat#3647-TK) (human, UniProt P46531 19-526); experiment: as above
T7 construct: Bought reagent; Fc part of the bought chimera not given

[8] = biological target: T8, rHuman EGF R/Fc Chimera, CF (R&D Systems Cat#344-ER) (human, UniProt P00533 25-645); experiment: as above
T8 construct: Bought reagent; also called epidermal growth factor receptor; Fc part of the bought chimera not given

[9] = biological target: T1, rHuman CD44/Fc Chimera, CF (R&D Systems …); experiment: ECL Multispot (MSD), 10 nM Fab; blank of this row 204
[10] = biological target: T2, rHuman ErbB2/Fc Chimera, CF (R&D …); experiment: as above
[11] = biological target: T3, rHuman IGF-1 sR, (IGF-1 sR), CF (R&D …); experiment: as above
[12] = biological target: T4, rHuman Erythropoietin R/Fc Chimera, CF …; experiment: as above
[13] = biological target: T5, rHuman P-Cadherin/Fc Chimera, CF (R&D …); experiment: as above
[14] = biological target: T6, rHuman HGF R/c-MET/Fc Chimera, CF (R&D …); experiment: as above
[15] = biological target: T7, rHuman Notch-1/Fc Chimera, CF (R&D …); experiment: as above
[16] = biological target: T8, rHuman EGF R/Fc Chimera, CF (R&D …); experiment: as above
[17] = biological target: T1, rHuman CD44/Fc Chimera, CF (R&D Systems …); experiment: ECL Multispot (MSD), 10 nM Fab; blank of this row 203
[18] = biological target: T2, rHuman ErbB2/Fc Chimera, CF (R&D …); experiment: as above
[19] = biological target: T3, rHuman IGF-1 sR, (IGF-1 sR), CF (R&D …); experiment: as above
[20] = biological target: T4, rHuman Erythropoietin R/Fc Chimera, CF …; experiment: as above
[21] = biological target: T5, rHuman P-Cadherin/Fc Chimera, CF (R&D …); experiment: as above
[22] = biological target: T6, rHuman HGF R/c-MET/Fc Chimera, CF (R&D …); experiment: as above
[23] = biological target: T7, rHuman Notch-1/Fc Chimera, CF (R&D …); experiment: as above
[24] = biological target: T8, rHuman EGF R/Fc Chimera, CF (R&D …); experiment: as above

T6 sequence (P08581 25-932, change not shown): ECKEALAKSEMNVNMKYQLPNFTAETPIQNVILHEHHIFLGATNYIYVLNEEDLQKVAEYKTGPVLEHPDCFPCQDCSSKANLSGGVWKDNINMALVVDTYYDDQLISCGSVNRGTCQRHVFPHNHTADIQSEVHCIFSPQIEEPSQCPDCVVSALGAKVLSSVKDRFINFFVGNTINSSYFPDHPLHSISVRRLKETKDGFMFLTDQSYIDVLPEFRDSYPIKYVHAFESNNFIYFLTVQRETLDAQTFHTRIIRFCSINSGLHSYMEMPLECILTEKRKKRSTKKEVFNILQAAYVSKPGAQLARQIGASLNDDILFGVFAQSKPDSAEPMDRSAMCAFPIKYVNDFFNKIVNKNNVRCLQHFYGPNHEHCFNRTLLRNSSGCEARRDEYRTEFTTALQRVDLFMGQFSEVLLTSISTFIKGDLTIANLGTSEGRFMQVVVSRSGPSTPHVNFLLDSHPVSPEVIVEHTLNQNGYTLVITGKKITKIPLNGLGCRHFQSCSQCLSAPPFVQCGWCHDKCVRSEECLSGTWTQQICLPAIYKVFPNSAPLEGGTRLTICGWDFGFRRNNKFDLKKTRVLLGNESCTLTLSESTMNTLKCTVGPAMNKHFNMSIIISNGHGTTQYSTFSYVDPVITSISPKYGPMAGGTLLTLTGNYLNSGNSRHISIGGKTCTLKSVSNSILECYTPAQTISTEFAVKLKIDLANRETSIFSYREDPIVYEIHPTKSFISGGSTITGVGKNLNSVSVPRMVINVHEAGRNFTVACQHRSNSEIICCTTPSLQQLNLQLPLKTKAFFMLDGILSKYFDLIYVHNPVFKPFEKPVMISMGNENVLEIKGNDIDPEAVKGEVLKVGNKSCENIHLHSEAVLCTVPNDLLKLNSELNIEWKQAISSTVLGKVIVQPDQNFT

ECL signal [1]: 345 | ECL signal [2]: 525 | ECL signal [3]: 361 | ECL signal [4]: 494 | ECL signal [5]: 305 | ECL signal [6]: 422 | ECL signal [7]: 376 | ECL signal [8]: 467 | ECL signal [9]: 340 | ECL signal [10]: 302 | ECL signal [11]: 213 | ECL signal [12]: 343 | ECL signal [13]: 118 | ECL signal [14]: 200 | ECL signal [15]: 283 | ECL signal [16]: 394
B1: Fab VH1-46_IGHD6-6*01_IGHJ1*01 S102A/S103P/S104F (APF) & L6_IGKJ1*01 (Fab, V domains shown)
VH: QVQLVQSGAEVKKPGASVKVSCKASGYTFTSYYMHWVRQAPGQGLEWMGIINPSGGSTSYAQKFQGRVTMTRDTSTSTVYMELSSLRSEDTAVYYCAREEYAPFSAEYFQHWGQGTLVTVSS
VL: not shown
notes: Tested as Fab made in E. coli; also called H:APF & L:wt; APF triple mutant

ECL signal [17]: 244 | ECL signal [18]: 314 | ECL signal [19]: 136 | ECL signal [20]: 277 | ECL signal [21]: 178 | ECL signal [22]: 235 | ECL signal [23]: 272 | ECL signal [24]: 286
B2: Fab VH1-46_IGHD6-6*01_IGHJ1*01 S102A/S103P/S104F H111S & L6_IGKJ1*01 (Fab, V domains shown)
VH: QVQLVQSGAEVKKPGASVKVSCKASGYTFTSYYMHWVRQAPGQGLEWMGIINPSGGSTSYAQKFQGRVTMTRDTSTSTVYMELSSLRSEDTAVYYCAREEYAPFSAEYFQSWGQGTLVTVSS
VL: not shown
notes: Fab format as for m1; also called APF H111S
